The nanobody polyreactivity screen of Harvey et al. (2022)

Experiment: yeast display, Sf9 membrane polyspecificity reagent, FACS + sequencing; frameworks hold sequencing errors
In short: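 In a synthetic yeast display library (Saccharomyces cerevisiae BJ5465), nanobody expression was induced with galactose for 36–48 hours. FACS gates were set low and high (top ~1%) using anti-HA fluorescence for expression and streptavidin fluorescence for binding of the Sf9 membrane reagent. Each polyreactivity label is drawn from the gate of origin.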

Which “polyreactivity (PSR sort gate)” value does the source give for “QVQLVESGGGLVQAGGSLRLSCAASGRIFPENAMGWYRQAPGTERELVAAISKNGGRTYYADSVKGRFTISRDNAKNTVYLQMNSLKPEDTAVYYCNRRVQARRYRYDYWGQGTQVTVSS” here?
The value was “high polyreactivity”.

Which “polyreactivity (PSR sort gate)” value does the source give for “QVQLVESGGGLVQAGGSLRLSCAASGRIFPFNAMGCYRQAPGKEREFVAAIRLSGTRTYYADSVKGRFTISRDNAKNTVYLQINSLKPDDTAVYYCAAKYSGHYYNYDYWGQGTQVTVSS” here?
The value was “high polyreactivity”.

For “QVQLVESGGGLVQAGGSLRLSCAASGRIFPFYTMGWYRQAPGKERELVAAIRNAGSTKYADSVKGRFTISRDNAKNTVYLQMNSLKPEDTAVYYCNADLTRYRRYYWGQGTQVTVSS”, which “polyreactivity (PSR sort gate)” value is on record?
The value was “low polyreactivity”.

Which “polyreactivity (PSR sort gate)” value does the source give for “QVQLVESGGGLVQAGGSLRLSCAASGRIFPGNALGWYIKAPGKEREFVASINWSVGSTFYADSVKGRFTISRDNAKHTVYLQMNSLKPEDTAVYYCAARTFGYYRSRSFNYWGQGTQVTVSS” here?
Its value is “high polyreactivity”.

With “QVQLVESGGGLVQAGGSLRLSCAASGRIFPGNAMGWYRQAPGKERELVATITESDSSTYYADSVKGRFTISRDNAKNTVYLQMNSLKPDDTAVYYFAAGPSVYWRYDYWGQGTQVTVSS” as the sequence, how does the “polyreactivity (PSR sort gate)” value read?
Its value is “low polyreactivity”.

With “QVQLVESGGGLVQAGGSLRLSCAASGRIFPGYAMGWYRQAPGKERELVAGISNDASTNYADSVKGRFTISRDNAKNTVYLQMNSLKPEDTAVYYCAAEISYLSVPRYDDWGQGTQVTVSS” as the sequence, how does the “polyreactivity (PSR sort gate)” value read?
Its value is “low polyreactivity”.

With “QVQLVESGGGLVQAGGSLRLSCAASGRIFPGYAMGWYRQAPGKERELVASISRTGRTNYADSVKGRFTISRDNAKNTVYLQMNSLKPEDTAVYYCAAEYYHSSYGYGYWGQGTQVTVSS” as the sequence, how does the “polyreactivity (PSR sort gate)” value read?
Its value is “low polyreactivity”.

For “QVQLVESGGGLVQAGGSLRLSCAASGRIFPKYAMGWYRQAPGKERELVATINSGTRTYADSVKGRFTISRDNAKNTVYLEMNSLKPEDTAVYYCARRGYYYDYWGQGTQVTVSS”, which “polyreactivity (PSR sort gate)” value is on record?
The value was “high polyreactivity”.

For “QVQLVESGGGLVQAGGSLRLSCAASGRIFPLYAMGWYRPAPGKERELVADISVTGTSTYYADSVKGRFTISRDNAKNTVYLQMNSLKPEDTAVYYCAADLWAYGPLWRWSRADYDYWGQGTQVTVSS”, which “polyreactivity (PSR sort gate)” value is on record?
The value was “low polyreactivity”.

For “QVQLVESGGGLVQAGGSLRLSCAASGRIFPLYAMGWYRQAPGKERELVAAITSSGGSTYYADSVKGRFTISRDNAKNTVYLQMNSLKPEDTAVYYCAADYSVYWLDYGYWGQGTQVTVSS”, which “polyreactivity (PSR sort gate)” value is on record?
The value was “low polyreactivity”.

For “QVQLVESGGGLVQAGGSLRLSCAASGRIFPLYAMGWYRQAPGKERELVAAITSSGGSTYYADSVKGRFTISRDNAKNTVYLQMNSLKPEDTAVYYCADEGYYSNYHYWGQGTQVTVSS”, which “polyreactivity (PSR sort gate)” value is on record?
The value was “low polyreactivity”.

With “QVQLVESGGGLVQAGGSLRLSCAASGRIFPRYAMGWYRQAPGKERELVAAISWSGGRTYYADSVKGRFTISRDNAKNTVYLQMNSLKPEDTAVYYCAKYVGWYGSPGYDYWGQGTHVTVSS” as the sequence, how does the “polyreactivity (PSR sort gate)” value read?
The value was “low polyreactivity”.

Which “polyreactivity (PSR sort gate)” value does the source give for “QVQLVESGGGLVQAGGSLRLSCAASGRIFPSYAMGWYRHAPGKERELVAAITSSDSTYNADSVKGRFTISRDNAKNTVYFQMNSLKPEDTAVYYCAAAYSYSGWWWFDYWGQGTQVTVSS” here?
Its value is “high polyreactivity”.

For “QVQLVESGGGLVQAGGSLRLSCAASGRIFPSYAMGWYRQAPGKERELVAAISYSGASTYYADSVKGRFTISRDYAKNTVSLQMNSLKPEDTAVYYCNQLVEEDYWGQGTQVTVSS”, which “polyreactivity (PSR sort gate)” value is on record?
Its value is “low polyreactivity”.

With “QVQLVESGGGLVQAGGSLRLSCAASGRIFPTNAMGWYRQAPGKERELVASITRSGSTYYADSVKGRFTISRDNAKNTVYLQMNSLKPEDTAVYYCAADRSAVQFSAFLEYDYWGQGTQVTVSS” as the sequence, how does the “polyreactivity (PSR sort gate)” value read?
The value was “low polyreactivity”.

Which “polyreactivity (PSR sort gate)” value does the source give for “QVQLVESGGGLVQAGGSLRLSCAASGRIFPTYAMGWYRQAPGKERELVATITRRGGSTYYADSVKGRFTISRDNAKNTVYLQMNSLKPEDTAVYYCAARLWGTIRYDYWGQGTQVTVSS” here?
The value was “high polyreactivity”.

For “QVQLVESGGGLVQAGGSLRLSCAASGRIFPTYTMGWYRQAPGKERELVAAINRGGGSTYYADSVKGRFTISRDNAKNTVYLQMNSLKPEDTAVYYCNARTYYRYYGYDYWGQGTQVTVSS”, which “polyreactivity (PSR sort gate)” value is on record?
The value was “low polyreactivity”.

For “QVQLVESGGGLVQAGGSLRLSCAASGRIFPVNAMGWYRQATGKERELVARISWRGGTYYADSVKGRFTISRDNAKNTVYLQMNSLKPEDTAVYYCAATLPSTSYWYQYGYWGQGTQVTVSS”, which “polyreactivity (PSR sort gate)” value is on record?
The value was “high polyreactivity”.

Which “polyreactivity (PSR sort gate)” value does the source give for “QVQLVESGGGLVQAGGSLRLSCAASGRIFPVYAMGWYRQAPGKERELVAAIRRTGGSTYYADSVKGRFTISRDNAKNTVYLQLNRLKPEDTAVYYCSVSSQPPLSRYGRFGVGYWGQGTQVTVSS” here?
Its value is “high polyreactivity”.

For “QVQLVESGGGLVQAGGSLRLSCAASGRIFPVYTMGWYRQAPGKERELVAAISGNGASTYYADSVKGRFTISRDNAKNTVYFHMNRLKPEYTAVYYCAAYFYYWGSTFVRYEYWGQGTQVTVSS”, which “polyreactivity (PSR sort gate)” value is on record?
The value was “high polyreactivity”.

Which “polyreactivity (PSR sort gate)” value does the source give for “QVQLVESGGGLVQAGGSLRLSCAASGRIFPWNPMGWYRQAPGKERELVAGINNGDRTYYADSVKGRFTISRDNAKNTVYLQMNSLKPEDTAVYYCAVDTWYFLFQYGYYQEGDYWGQGTQVTVSS” here?
The value was “low polyreactivity”.

For “QVQLVESGGGLVQAGGSLRLSCAASGRIFPWYAMGWYRQAPGKERELVAAISWSGGRTYYADSVKGRFTISRDNAKNTVYLQMNSLKPEDTAVYYCAAERVTYTISYSYSYDYWGQGTQVTVSS”, which “polyreactivity (PSR sort gate)” value is on record?
The value was “high polyreactivity”.

With “QVQLVESGGGLVQAGGSLRLSCAASGRIFPWYSMGWYRQAPGKERELVAAISSSGGRTYYADSVKGRFTISRDNAKNTVYLQMNSLKPVDTAVYYCAADRRYISQRTYNYWGQGTQVTVSS” as the sequence, how does the “polyreactivity (PSR sort gate)” value read?
The value was “high polyreactivity”.

With “QVQLVESGGGLVQAGGSLRLSCAASGRIFPWYTMGWYRQAPGKERELVATIRGSGGSTHYADSVKGRFTISRDNAKNTVYLQMNSLKPEDTAVYYCATDRPRYRYQYKFDYWGQGTQVTVSS” as the sequence, how does the “polyreactivity (PSR sort gate)” value read?
Its value is “low polyreactivity”.

For “QVQLVESGGGLVQAGGSLRLSCAASGRIFPYNAMGWSRQAPGQERELVARIDSGGRTNYADSVKGRFTISRDNAKNTVYLQMNSLKPEDTAVYYCARVFSLARSWYRYYYWGQGTQVTVSS”, which “polyreactivity (PSR sort gate)” value is on record?
Its value is “high polyreactivity”.

For “QVQLVESGGGLVQAGGSLRLSCAASGRIFPYNAMGWYRQAPGKEREFVASIRTRGVSTYYADSVKGRFTISRDNAKNTVYLQMNSLKPEDTAVYYCNAQRPGYAKGPRYDYWGQGTQVTVSS”, which “polyreactivity (PSR sort gate)” value is on record?
The value was “high polyreactivity”.

For “QVQLVESGGGLVQAGGSLRLSCAASGRIFPYNVMGWYRPATGKERELVAAISWSGGRTYYADSVKGRFTISRDNAKNTVYLQMISLKPEDTAVYYCNTRTLVAMGYWGQGTQVTVSS”, which “polyreactivity (PSR sort gate)” value is on record?
Its value is “high polyreactivity”.

With “QVQLVESGGGLVQAGGSLRLSCAASGRIFPYYAMGWSRQAPGKERELVAAISLSGGSTYYADSVKGRFTISRDNAKNTVYLQMNSLKPEDTAVYYCNAVASTYGYYWYPGLGYDYWGQGTQVTVSS” as the sequence, how does the “polyreactivity (PSR sort gate)” value read?
Its value is “low polyreactivity”.

With “QVQLVESGGGLVQAGGSLRLSCAASGRIFPYYAMGWYRQAPGKERELVAAISRIGGRTYYADSVKGRFTISRDNAKNTVSLQMNSLKPEDTAVYYCAAGYGGTFNCGQGTQVTVSS” as the sequence, how does the “polyreactivity (PSR sort gate)” value read?
The value was “high polyreactivity”.

With “QVQLVESGGGLVQAGGSLRLSCAASGRIFPYYAMGWYRQAPGKERELVAAITARGGRTYYADSVKGRFSISRDNAKNTVYLQMNSLKPEETAVYYCNTGGRSGSPGYDYWGQGTQVTVSS” as the sequence, how does the “polyreactivity (PSR sort gate)” value read?
The value was “high polyreactivity”.

Which “polyreactivity (PSR sort gate)” value does the source give for “QVQLVESGGGLVQAGGSLRLSCAASGRIFPYYAMGWYRQAPGKERELVASTNYADSVKGRFTISRDNAKNTVYLQMNSLKPEDTAVYYCAADGYRYSVYLIRNPMDYWGQGTQVTVSS” here?
Its value is “low polyreactivity”.

For “QVQLVESGGGLVQAGGSLRLSCAASGRIFPYYAMGWYRQAPGKERELVATITWRGGITYYADSVKGRFTISRDNAKNTVYLQMNSLKPEDTAVYYCAVRKVYRSSFDYWGQGTQVTVSS”, which “polyreactivity (PSR sort gate)” value is on record?
The value was “high polyreactivity”.

With “QVQLVESGGGLVQAGGSLRLSCAASGRIFPYYAMGWYRQEPGKEREFVAAISSSGDSTYYADSVKGRFTISRDNAKNTVYLQMNSLKPEDTPVYYCATRYRSSQWYSPYKYDYWGQGTQVTLSS” as the sequence, how does the “polyreactivity (PSR sort gate)” value read?
The value was “low polyreactivity”.

Which “polyreactivity (PSR sort gate)” value does the source give for “QVQLVESGGGLVQAGGSLRLSCAASGRIFPYYDMGWYRQAPGKEMELVATITWRGGITYYADSVKGRFTISRDNAKNTVYLQMNSLKPEDTAVYYCAVRKVYRSSFDYWGQGTQVTVSS” here?
The value was “high polyreactivity”.

With “QVQLVESGGGLVQAGGSLRLSCAASGRIFPYYTMGWYRQAPGKERELVAAITSGGITYYADSVKGRFTISRDNAKNTVYLQMKSLKPEDTAVYSCAALHSGKYTRYKYGYWGQGTQVTVSS” as the sequence, how does the “polyreactivity (PSR sort gate)” value read?
The value was “high polyreactivity”.

For “QVQLVESGGGLVQAGGSLRLSCAASGRIFQANAMGWYRQAPGKERELVAAISWSGGSTYYADSVKGRFTISRDNAKNTVYLQMNSLKPEDTAVYYCAKDYVHQYGVYKVWANNYNYWGQGTQVTVSS”, which “polyreactivity (PSR sort gate)” value is on record?
Its value is “low polyreactivity”.

With “QVQLVESGGGLVQAGGSLRLSCAASGRIFQDNAMGWSRQAPGNERELVAAISKSGGITYYADSVKGRFTISRDNAKNTVYLQMNSLKPEDTAVYNCAAVWSRFLISYSTGWWFEYWGQGTQVTVSS” as the sequence, how does the “polyreactivity (PSR sort gate)” value read?
The value was “low polyreactivity”.

For “QVQLVESGGGLVQAGGSLRLSCAASGRIFQEYAMGWYRQAPGKERELVAAISSGGGSTYYADSVKGRFTISRDNAKNTVYLQMNSLKPEDTAVYYCAARVYIAYISMDHWGQGTQVTVSS”, which “polyreactivity (PSR sort gate)” value is on record?
The value was “low polyreactivity”.

With “QVQLVESGGGLVQAGGSLRLSCAASGRIFQGYAMVWYRQAPGKERELVARITSGSNTNYADSVKGRFTISRDNAKNTVYLQMNSLKPEDTAVYYCAKEPVGSVRYGRFQQDDYWGQGTQVTVSS” as the sequence, how does the “polyreactivity (PSR sort gate)” value read?
Its value is “low polyreactivity”.

For “QVQLVESGGGLVQAGGSLRLSCAASGRIFQGYVMGWYRQAPGKERELVAVISRRGGITNYADSVKGRFTISRDNAKNTVYLQMISLKPEDTAVYYCNDVTRVYNNGQYGYWGQGTQVTVSS”, which “polyreactivity (PSR sort gate)” value is on record?
Its value is “high polyreactivity”.

For “QVQLVESGGGLVQAGGSLRLSCAASGRIFQIYAMGWYRQAPGKERELVAAIRSGSNTNYADSVKGRFTISRDNAKNTVYLQMNSLKPEDTAVYYCAADGWYSAVGVWLEYDYWGQGTQVTVSS”, which “polyreactivity (PSR sort gate)” value is on record?
The value was “low polyreactivity”.

With “QVQLVESGGGLVQAGGSLRLSCAASGRIFQIYAMGWYRQAPGKERELVAAIRSGSNTNYADSVKGRFTISRDNAMNTVYLQMNSLKPEDTAVYYCNALYTSLRKYNYWGQGTQVTVSS” as the sequence, how does the “polyreactivity (PSR sort gate)” value read?
The value was “low polyreactivity”.

For “QVQLVESGGGLVQAGGSLRLSCAASGRIFQIYAMGWYRQAPGKERELVAAISNRGGSTYYADSVKVRFTISRDNAKNTVYLQMNSLKPEDTAVYYFNATTGYGGYNYWGQGTKVTVSS”, which “polyreactivity (PSR sort gate)” value is on record?
The value was “low polyreactivity”.
